Source: paper PMC9314101

Biological target: PtrMYB074 (Populus trichocarpa, UniProt B9IEX5 1-371)
Experiment: EMSA

B1: PtrbHLH186 promoter W-box probe (dsDNA)
DNA 1: CTATAGTTTGACTGTA
DNA 2: TACAGTCAAACTATAG
  binding result: no binding
